Target: 6xHis-eugenol-oxidase-StrepTag-II (recombinant eugenol oxidase from Rhodococcus jostii) (Rhodococcus sp. RHA1)
Assay: SEC; pure EUGO on Superdex 200 10/300 GL (AKTA Pure), 100 uL loaded, 0.5 mL/min, running buffer 50 mM Tris-Base pH 8 with 150 mM NaCl; size estimated from a protein standard mix (15-600 kDa)

- stoichiometry N: 2
Substance: 6xHis-eugenol-oxidase-StrepTag-II (recombinant eugenol oxidase from Rhodococcus jostii) (enzyme)

— publication PMC10638201, “Application of electrospun chitosan-based nanofibers as immobilization matrix for biomolecules” (Applied Microbiology and Biotechnology, 2023)
